B1: anti-CD138 IgE (antibody)
heavy: QVQLQQSGSELMMPGASVKISCKATGYTFSNYWIEWVKQRPGHGLEWIGEILPGTGRTIYNEKFKGKATFTADISSNTVQMQLSSLTSEDSAVYYCARRDYYGNFYYAMDYWGQGTSVTVSSASTQSPSVFPLTRCCKNIPSNATSVTLGCLATGYFPEPVMVTWDTGSLNGTTMTLPATTLTLSGHYATISLLTVSGAWAKQMFTCRVAHTPSSTDWVDNKTFSVCSRDFTPPTVKILQSSCDGGGHFPPTIQLLCLVSGYTPGTINITWLEDGQVMDVDLSTASTTQEGELASTQSELTLSQKHWLSDRTYTCQVTYQGHTFEDSTKKCADSNPRGVSAYLSRPSPFDLFIRKSPTITCLVVDLAPSKGTVNLTWSRASGKPVNHSTRKEEKQRNGTLTVTSTLPVGTRDWIEGETYQCRVTHPHLPRALMRSTTKTSGPRAAPEVYAFATPEWPGSRDKRTLACLIQNFMPEDISVQWLHNEVQLPDARHSTTQPRKTKGSGFFVFSRLEVTRAEWEQKDEFICRAVHEAASPSQTVQRAVSVNPGK
light: DIQMTQSTSSLSASLGDRVTISCSASQGINNYLNWYQQKPDGTVELLIYYTSTLQSGVPSRFSGSGSGTDYSLTISNLEPEDIGTYYCQQYSKLPRTFGGGTKLEIKRTVAAPSVFIFPPSDEQLKSGTASVVCLLNNFYPREAKVQWKVDNALQSGNSQESVTEQDSKDSTYSLSSTLTLSKADYEKHKVYACEVTHQGLSSPVTKSFNRGEC
notes: Mouse/human chimeric IgE; also called CD138-Targeted Antibody; anti-CD138 IgE antibody
B2: anti-TfR1 IgE (antibody)
heavy: EVQLQQSGPELVKPGASMKISCKASGYSFTGYTMNWVKQSHGENLEWIGRINPHNGGTDYNQKFKDKAPLTVDKSSNTAYMELLSLTSGDSAVYYCARGYYYYSLDYWGQGTSVTVSSASTQSPSVFPLTRCCKNIPSNATSVTLGCLATGYFPEPVMVTWDTGSLNGTTMTLPATTLTLSGHYATISLLTVSGAWAKQMFTCRVAHTPSSTDWVDNKTFSVCSRDFTPPTVKILQSSCDGGGHFPPTIQLLCLVSGYTPGTINITWLEDGQVMDVDLSTASTTQEGELASTQSELTLSQKHWLSDRTYTCQVTYQGHTFEDSTKKCADSNPRGVSAYLSRPSPFDLFIRKSPTITCLVVDLAPSKGTVNLTWSRASGKPVNHSTRKEEKQRNGTLTVTSTLPVGTRDWIEGETYQCRVTHPHLPRALMRSTTKTSGPRAAPEVYAFATPEWPGSRDKRTLACLIQNFMPEDISVQWLHNEVQLPDARHSTTQPRKTKGSGFFVFSRLEVTRAEWEQKDEFICRAVHEAASPSQTVQRAVSVNPGK
light: QIVLTQSPAIMSVSPGEKVTMTCSASSSIRYIHWYQQRPGTSPKRWIYDTSNLASGVPARFSGSGSGTSYSLTISSMEAEDAATYYCHQRNSYPWTFGGGTRLEIRRTVAAPSVFIFPPSDEQLKSGTASVVCLLNNFYPREAKVQWKVDNALQSGNSQESVTEQDSKDSTYSLSSTLTLSKADYEKHKVYACEVTHQGLSSPVTKSFNRGEC
notes: Mouse/human chimeric IgE; also called TfR1-Targeted Antibody; anti-TfR1 IgE antibody

What was measured:
[1] = target: T1, human FcεRI (human, UniProt P12319 26-257); experiment: flow cytometry on RBL SX-38 cells expressing human FcεRI
T1 construct: whole, on cells; Multi-subunit receptor; In the PCA assay it is the humanized FcεRI of transgenic huFcεRI mice; also called huFcεRI
T1 sequence (looked up): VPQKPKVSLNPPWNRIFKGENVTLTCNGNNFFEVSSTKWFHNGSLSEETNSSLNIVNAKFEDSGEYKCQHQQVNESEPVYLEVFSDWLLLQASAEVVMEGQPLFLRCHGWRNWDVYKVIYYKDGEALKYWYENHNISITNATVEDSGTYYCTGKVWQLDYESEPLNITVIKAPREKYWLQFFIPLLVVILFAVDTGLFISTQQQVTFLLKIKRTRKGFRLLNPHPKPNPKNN
Procedure: Human MM cells (MM.1S) expressing CD138 were incubated with either IgE isotype control (non-targeting control), anti-CD138 IgG1, or anti-CD138 IgE. The rat basophilic leukemia cells RBL SX-38 expressing human FcεRI were incubated with either IgE isotype control, anti-CD138 IgG1, or anti-CD138 IgE. Antibody binding was detected using a PE-conjugated goat F(ab′)₂ anti-human κ antibody. Grey line histograms represent cells incubated with secondary antibody only (“no antibody”). Black line histograms represent cells incubated with primary antibodies (IgE isotype control, anti-CD138 IgG1, or anti-CD138 IgE).
Human MM cells (MM.1S) expressing TfR1 were incubated with either IgE isotype control (non-targeting control) or anti-TfR1 IgE. […] Antibody binding was detected using a PE-conjugated mouse IgG1 anti-human IgE antibody. […]
Antigen binding of the anti-CD38 IgE, anti-CD138 IgE, and anti-TfR1 IgE antibodies was studied by flow cytometry using the human multiple myeloma (MM) cell line MM.1S purchased from the American Type Culture Collection (ATCC, Manassas, VA, USA; ATCC® CRL-2974™). […] Binding to FcεRI was also assessed by flow cytometry using the rat basophilic leukemia cell line RBL SX-38 expressing human FcεRI¹¹³ kindly provided by Dr. Jean-Pierre Kinet (Beth Israel Deaconess Medical Center, Boston, MA, USA). […]

[2] = target: T2, human CD138 (human, UniProt P18827 23-310); experiment: flow cytometry on MDA-MB-468 and SK-BR-3 cells expressing CD138
T2 construct: whole, on cells; Endogenous antigen on MM.1S, MDA-MB-468 and SK-BR-3 cells; also called syndecan-1
T2 sequence (looked up): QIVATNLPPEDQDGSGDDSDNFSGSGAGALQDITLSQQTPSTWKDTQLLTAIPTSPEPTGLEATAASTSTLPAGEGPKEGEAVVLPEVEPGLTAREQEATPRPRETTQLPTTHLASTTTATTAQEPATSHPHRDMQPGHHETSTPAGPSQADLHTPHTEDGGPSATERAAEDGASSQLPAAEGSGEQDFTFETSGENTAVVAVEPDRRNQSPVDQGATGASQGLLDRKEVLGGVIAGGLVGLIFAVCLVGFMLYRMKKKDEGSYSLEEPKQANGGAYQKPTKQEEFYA
Procedure: Human triple negative breast cancer (TNBC) cells (MDA-MB-468) and human HER2/neu positive breast cancer cells (SK-BR-3) expressing CD138 were incubated with either IgE isotype control (non-targeting control) or anti-CD138 IgE. Antibody binding was detected using a PE-conjugated goat F(ab′)₂ anti-human κ antibody. Grey filled histograms represent cells incubated with secondary antibody only (“no antibody”). Empty black line histograms represent cells incubated with primary antibodies (IgE isotype control or anti-CD138 IgE).
(§1) Antigen binding of the anti-CD38 IgE, anti-CD138 IgE, and anti-TfR1 IgE antibodies was studied by flow cytometry using the human multiple myeloma (MM) cell line MM.1S purchased from the American Type Culture Collection (ATCC, Manassas, VA, USA; ATCC® CRL-2974™). […] Binding to FcεRI was also assessed by flow cytometry using the rat basophilic leukemia cell line RBL SX-38 expressing human FcεRI¹¹³ kindly provided by Dr. Jean-Pierre Kinet (Beth Israel Deaconess Medical Center, Boston, MA, USA). […] Samples were analyzed on a BD LSRII analytical flow cytometer (BD Biosciences, San Jose, CA, USA) and 10,000 events were collected. […]

[3] = target: T3, human transferrin receptor 1 (TfR1) (human, UniProt P02786 1-760); experiment: flow cytometry on MM.1S cells expressing TfR1
T3 construct: whole, on cells; Endogenous antigen on MM.1S cells; also called transferrin receptor protein 1; CD71
T3 sequence (P02786 whole entry): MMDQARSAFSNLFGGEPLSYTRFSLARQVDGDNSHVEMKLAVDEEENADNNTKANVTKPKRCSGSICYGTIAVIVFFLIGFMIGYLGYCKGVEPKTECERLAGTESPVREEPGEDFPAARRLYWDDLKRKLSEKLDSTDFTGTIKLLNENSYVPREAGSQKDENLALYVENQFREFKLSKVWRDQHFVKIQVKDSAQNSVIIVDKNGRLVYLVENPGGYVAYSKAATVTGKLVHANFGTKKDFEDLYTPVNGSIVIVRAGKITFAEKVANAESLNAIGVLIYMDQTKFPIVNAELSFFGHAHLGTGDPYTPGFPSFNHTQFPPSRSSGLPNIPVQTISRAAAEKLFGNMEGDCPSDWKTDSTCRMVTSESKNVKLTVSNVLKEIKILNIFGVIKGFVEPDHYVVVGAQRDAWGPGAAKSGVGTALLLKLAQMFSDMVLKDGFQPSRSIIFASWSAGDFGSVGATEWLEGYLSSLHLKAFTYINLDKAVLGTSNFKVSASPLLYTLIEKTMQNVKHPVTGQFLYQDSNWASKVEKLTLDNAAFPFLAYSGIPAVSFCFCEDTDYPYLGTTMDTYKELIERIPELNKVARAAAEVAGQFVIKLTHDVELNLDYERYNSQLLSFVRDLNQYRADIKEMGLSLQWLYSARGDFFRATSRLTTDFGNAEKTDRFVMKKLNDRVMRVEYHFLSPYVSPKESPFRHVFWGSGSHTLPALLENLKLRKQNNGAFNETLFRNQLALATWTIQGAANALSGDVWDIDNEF
Procedure: Human MM cells (MM.1S) expressing TfR1 were incubated with either IgE isotype control (non-targeting control) or anti-TfR1 IgE. The rat basophilic leukemia cells RBL SX-38 expressing human FcεRI were incubated with either IgE isotype control or anti-TfR1 IgE. Antibody binding was detected using a PE-conjugated mouse IgG1 anti-human IgE antibody. Grey filled histograms represent cells incubated with secondary antibody only (“no antibody”). Empty black line histograms represent cells incubated with primary antibodies (IgE isotype control or anti-TfR1 IgE).
as §1

Binder | binding result [1] | binding result [2] | binding result [3]
B1 | binds | binds | 
B2 | binds |  | binds

Reference: US20240101695A1 (University of California, published 2024)
